PMC3635657 (Biochemical Journal, 2013)
One block for each molecule: values may come before it.

B1: TorD^His (hexahistidine-tagged TorD) (natural protein, E. coli, UniProt P36662 1-199, looked up)
chain: MTTLTAQQIACVYAWLAQLFSRELDDEQLTQIASAQMAEWFSLLKSEPPLTAAVNELENRIATLTVRDDARLELAADFCGLFLMTDKQAALPYASAYKQDEQEIKRLLVEAGMETSGNFNEPADHLAIYLELLSHLHFSLGEGTVPARRIDSLRQKTLTALWQWLPEFVARCRQYDSFGFYAALSQLLLVLVECDHQNR
B3: TorAΔSP (TorA Δ2–39, lacking its entire Tat signal peptide) (domain or fragment, E. coli, UniProt P33225 40-848, looked up)
chain: AQAATDAVISKEGILTGSHWGAIRATVKDGRFVAAKPFELDKYPSKMIAGLPDHVHNAARIRYPMVRVDWLRKRHLSDTSQRGDNRFVRVSWDEALDMFYEELERVQKTHGPSALLTASGWQSTGMFHNASGMLAKAIALHGNSVGTGGDYSTGAAQVILPRVVGSMEVYEQQTSWPLVLQNSKTIVLWGSDLLKNQQANWWCPDHDVYEYYAQLKAKVAAGEIEVISIDPVVTSTHEYLGREHVKHIAVNPQTDVPLQLALAHTLYSENLYDKNFLANYCVGFEQFLPYLLGEKDGQPKDAAWAEKLTGIDAETIRGLARQMAANRTQIIAGWCVQRMQHGEQWAWMIVVLAAMLGQIGLPGGGFGFGWHYNGAGTPGRKGVILSGFSGSTSIPPVHDNSDYKGYSSTIPIARFIDAILEPGKVINWNGKSVKLPPLKMCIFAGTNPFHRHQQINRIIEGLRKLETVIAIDNQWTSTCRFADIVLPATTQFERNDLDQYGNHSNRGIIAMKQVVPPQFEARNDFDIFRELCRRFNREEAFTEGLDEMGWLKRIWQEGVQQGKGRGVHLPAFDDFWNNKEYVEFDHPQMFVRHQAFREDPDLEPLGTPSGLIEIYSKTIADMNYDDCQGHPMWFEKIERSHGGPGSQKYPLHLQSVHPDFRLHSQLCESETLRQQYTVAGKEPVFINPQDASARGIRNGDVVRVFNARGQVLAGAVVSDRYAPGVARIHEGAWYDPDKGGEPGALCKYGNPNVLTIDIGTSQLAQATSAHTTLVEIEKYNGTVEQVTAFNGPVEMVAQCEYVPASQVKS

Experiments:
[1] = target: TorD^His (hexahistidine-tagged TorD) (E. coli) (UniProt P36662); test: SEC-MALS
[2] = target: TorA signal peptide signal peptide (Escherichia coli) (UniProt P33225); details: cited from earlier work
[3] = target: B3; test: pull-down
[4] = target: B1; test: SEC-MALS

stoichiometry N [1]: 1
Molecule: TorA, full-length precursor (trimethylamine N-oxide reductase), cofactor-free (from UniProt P33225 40-848) (natural protein)

Molecule: TorD (from UniProt P36662)
Kd [2]: 59 nM

Molecule: B1
binding result [3]: binds

stoichiometry N [4]: 1
B2: TorAΔCT (TorA Δ676–848, lacking its entire C-terminal Domain IV) (domain or fragment, E. coli, UniProt P33225 1-675, looked up)
chain: MNNNDLFQASRRRFLAQLGGLTVAGMLGPSLLTPRRATAAQAATDAVISKEGILTGSHWGAIRATVKDGRFVAAKPFELDKYPSKMIAGLPDHVHNAARIRYPMVRVDWLRKRHLSDTSQRGDNRFVRVSWDEALDMFYEELERVQKTHGPSALLTASGWQSTGMFHNASGMLAKAIALHGNSVGTGGDYSTGAAQVILPRVVGSMEVYEQQTSWPLVLQNSKTIVLWGSDLLKNQQANWWCPDHDVYEYYAQLKAKVAAGEIEVISIDPVVTSTHEYLGREHVKHIAVNPQTDVPLQLALAHTLYSENLYDKNFLANYCVGFEQFLPYLLGEKDGQPKDAAWAEKLTGIDAETIRGLARQMAANRTQIIAGWCVQRMQHGEQWAWMIVVLAAMLGQIGLPGGGFGFGWHYNGAGTPGRKGVILSGFSGSTSIPPVHDNSDYKGYSSTIPIARFIDAILEPGKVINWNGKSVKLPPLKMCIFAGTNPFHRHQQINRIIEGLRKLETVIAIDNQWTSTCRFADIVLPATTQFERNDLDQYGNHSNRGIIAMKQVVPPQFEARNDFDIFRELCRRFNREEAFTEGLDEMGWLKRIWQEGVQQGKGRGVHLPAFDDFWNNKEYVEFDHPQMFVRHQAFREDPDLEPLGTPSGLIEIYSKTIADMNYDDCQGHPMWFEK

Molecule: B3
stoichiometry N [4]: 1
